Km data for one protein are collected here from PMC6402204, “Production Optimization of an Active β-Galactosidase of Bifidobacterium animalis in Heterologous Expression Systems” (BioMed Research International, 2019).

Substrate in this data set: O=[N+]([O-])c1ccccc1O[C@@H]1O[C@H](CO)[C@H](O)[C@H](O)[C@H]1O
Nature of the data set: purified protein. Particulars: pH 6.0, 100 mM Na2HPO4-citric acid, 60°C, oNPG 1.38-25 mM, free enzyme. In kind it is biochemical, Bifidobacterium animalis.

The term Km denotes the substrate concentration at which the rate is half of its maximum.

B1: bG42-106 (Bifidobacterium animalis subsp. lactis) (protein)
chain: MSASTQHRAHRWPQPLPGNDRKIWFGADYNPDQWPEDVQDEDIRLMKQAGVNIVSLAIFSWANIETSDGNFEFDWLDRVIDKLYKAGIAVDLASATASPPMWLTSAHPEVLRRDEQGHVIWPGARQHWRPTSPTFRTYALRLCREMAEHYKDNPAIVSWHVGNEYGCHNYFDYSDDAVQAFREWCRDRYGTIDKVNAAWGTNFWSQRLNSFEEILPPRYVGGEGNFTNPGRLLDFKHFCSDALKEFFCAERDVLSEVTPNIPLTTNFMVSASQNTLDYDDWAHEVDFVSNDHYFTPGSWHIDELAYSASLVDGISRKKPWFLMEQSTSAVNWREINPRKEPGELIRDSMLHLAMGADAICYFQWRQSRSGAEKFHSAMLPLAGEHSQIYRDVCALGADLDTLSDAGILRSKLSKARVAIVQDIQSEWATEHTATPTQHIREWTEPLDWFAAFANRGVTADVTPIHAQWDTYDAVVIPCVYLFSEEMAERLRTFVRNGGKAFVTYYSALADEHDRLHTEGWPGLIGDVVGVRIEEHCPLGTLFPGMLDHLDVSNGTVVHDLADVIDAIADDTTVLATFEADPATGMDGRAAITVHPYHEGGVAYIAGKLGRDGISQSLPEICAALGFELDADPRAGDVLRVVREQEDGAIFEFLFNRTRNTVTADRPAGDMLICSLATDSTDKVTLEPNGVLAFRR
notes: full-length, 695 residues, 78 kDa calculated, no signal peptide; C-terminal His6 (pET-30a(+)), E. coli BL21(DE3), Ni-NTA purified; homodimer by native PAGE (~180 kDa)
As to B1, the Michaelis-Menten constant (Km) amounted to 5.14 mM.
